Source: patent US9644034B2, “Anti-RSPO2 antibodies and uses thereof” (OncoMed Pharmaceuticals, Inc., priority 2011, dated 2017)

What was measured:
Type in all cases: cell-based, human
β-catenin signaling [1] = experiment: Luciferase assay in STF-293 cells with LU2 cells, lung tumor cell-conditioned medium and Wnt3a-L cell-conditioned medium; conditions: increasing concentrations, 50 to 0.0006 μg/ml
Description: Conditioned medium from human lung tumor LU2 cells was prepared as described in Example 3 and soluble LGR5-Fc was produced as described in Example 2.
STF-293 cells were incubated with LU2 cells plus 25% lung tumor cell-conditioned medium plus 25% Wnt3a-L cell-conditioned medium. Antibody 130M23 and soluble LGR5-Fc were added to the cells in 5-fold serially dilutions from 50 μg/ml to 0.0006 μg/ml. An irrelevant monoclonal antibody, similarly diluted, and a control Fc fusion protein (50 ug/ml) were used as negative controls. The cells were incubated for 20 hours and luciferase activity was measured using Steady-Glo® Luciferase Assay System according to the manufacturer's instructions (Promega, Madison, Wis.).

β-catenin signaling [2] = experiment: Co-culture 6xTCF-luciferase assay in STF-293 cells with lung (LU2, LU25) and ovarian (OV38) tumor cells and supernatants; conditions: tumor cells LU2, LU25, OV38; 10 μg/ml
Description: Similar experiments were undertaken using co-culture assays using lung tumor cell-conditioned medium and ovarian tumor cell-conditioned medium. As described above, freshly processed tumor cells depleted of stroma cells were cultured overnight. Culture medium and cells were transferred to STF-293 cells with or without Wnt3a L-cell-conditioned medium. LGR5-Fc fusion protein, a FZD8-Fc fusion protein, or a control Fc fusion protein was added (10 μg/ml). The cells were incubated for 20 hours and luciferase activity was measured as described above.

β-catenin signaling [3] = experiment: 6xTCF-luciferase reporter assay in STF-293 cells with lung tumor cell-conditioned medium (LT); conditions: Fc proteins 10 μg/ml, antibodies 40 μg/ml
Description: To prepare cell suspensions, fresh human lung adenocarcinoma xenograft tumors (lung tumor #1 in Table 2) propagated in NOD/SCID mice were minced and digested in medium 199 (Invitrogen, Carlsbad, Calif.) containing 300 U/ml collagenase type 3 (Worthington, Lakewood, N.J.) and 200 U/ml DNase I (Worthington, Lakewood, N.J.) for 1 to 2 hours at 37° C. The lung tumor cells were filtered through a 40 μm nylon strainer (BD Falcon, Franklin Lakes, N.J.), and spun down at 82×g for 5 minutes. Red blood cells were lysed in ACK buffer (0.8% ammonium chloride, 0.1 mM EDTA, 10 mM sodium bicarbonate, […]), washed, and centrifuged at 150×g for 5 minutes in medium consisting of HBSS (Mediatech, Manassas, Va.), 25 mM HEPES buffer (Mediatech, Manassas, Va.) and 2% heat-inactivated fetal bovine serum (HI-FBS; Invitrogen, Carlsbad, Calif.). Dead cells and debris were removed by centrifugation on a cushion of HI-FBS at 82×g for 8 minutes. […]
STF-293 cells are stably transfected with a 6×TCF-luciferase reporter vector. […] The cells were incubated for 16 hours and luciferase activity was measured using Steady-Glo® Luciferase Assay System according to the manufacturer's instructions (Promega, Madison, Wis.). […]

β-catenin signaling [4] = experiment: TOPflash luciferase assay in HEK-293 cells: inhibition of RSPO activity by soluble LGR5; conditions: LGR5-Fc 20 to 0.02 μg/ml; controls 20 μg/ml
Description: Conditioned medium from human lung tumor #1 cells was prepared as described in Example 3 and soluble LGR5-Fc and RSPO2-Fc were produced as described in Example 2.
HEK-293 cells were transfected with a 6×TCF-luciferase reporter vector (TOPflash, Millipore, Billerica, Mass.). After 24-48 hrs, the transfected cells were incubated with medium containing 25% lung tumor cell-conditioned medium plus 25% Wnt3a-L cell-conditioned medium or medium containing RSPO2 (1 Ong/ml) plus 25% Wnt3a-L cell-conditioned medium. Soluble LGR5 was added to the cells in 4-fold serially dilutions at 20 μg/ml to 0.02 μg/ml. Soluble Jag-Fc protein was used as a negative control at 20 μg/ml and FZD8-Fc protein was used as a positive control at 20 μg/ml. The cells were incubated for 16 hours and luciferase activity was measured using Steady-Glo® Luciferase Assay System according to the manufacturer's instructions (Promega, Madison, Wis.).

B1: LGR5-Fc: soluble fusion protein: amino acids 22-564 of human LGR5 ligated to human Fc (protein)
chain: GSSPRSGVLLRGCPTHCHCEPDGRMLLRVDCSDLGLSELPSNLSVFTSYLDLSMNNISQLLPNPLPSLRFLEELRLAGNALTYIPKGAFTGLYSLKVLMLQNNQLRHVPTEALQNLRSLQSLRLDANHISYVPPSCFSGLHSLRHLWLDDNALTEIPVQAFRSLSALQAMTLALNKIHHIPDYAFGNLSSLVVLHLHNNRIHSLGKKCFDGLHSLETLDLNYNNLDEFPTAIRTLSNLKELGFHSNNIRSIPEKAFVGNPSLITIHFYDNPIQFVGRSAFQHLPELRTLTLNGASQITEFPDLTGTANLESLTLTGAQISSLPQTVCNQLPNLQVLDLSYNLLEDLPSFSVCQKLQKIDLRHNEIYEIKVDTFQQLLSLRSLNLAWNKIAIIHPNAFSTLPSLIKLDLSSNLLSSFPITGLHGLTHLKLTGNHALQSLISSENFPELKVIEMPYAYQCCAFGVCENAYKISNQWNKGDNSSMDDLHKKDAGMFQAQDERDLEDFLLDFEEDLKALHSVQCSPSPGPFKPCEHLLDGWLIRIGV
modifications: left off: a dimerising Fc or GST
notes: soluble fusion protein: amino acids 22-564 of human LGR5 ligated to human Fc
induction of luciferase activity by lung tumor cell-conditioned medium and Wnt3a-conditioned medium (β-catenin signaling [1]): reduced
reduction of tumor-derived β-catenin activity (β-catenin signaling [2]): strongly reduced
inhibition of the LT activity potentiating Wnt3a-induced β-catenin activity (β-catenin signaling [3]; LT plus Wnt3a L-cell-conditioned medium): inhibited
inhibition of LT medium-induced β-catenin signaling (β-catenin signaling [3]; absence of Wnt3a): reducing the response to almost control levels
induction of luciferase activity by RSPO2-Fc plus Wnt3a-conditioned medium (β-catenin signaling [4]): reduced
induction of luciferase activity by lung tumor cell-conditioned medium and Wnt3a-conditioned medium (β-catenin signaling [4]): reduced
